Results on seven molecules are retold here after patent US20230331828A1 (published 2023).

For experiment [1], the target named is T1, Aβ1-42 fibrils (human).
T1 construct: Aβ1-42 polypeptide, HFIP-treated, incubated in 10 mM HCl at 37 C for 24 h, pelleted fibrillar fraction, sonicated; Multimeric fibril; also called fibril Aβ42; fibrillar Aβ42
The experiment can be described thus: SPR (BIAcore T200); Aβ1-42 fibrils immobilized, Fab as analyte; global 1:1 fit; apparent KD. As for the experimental part: (§1) Fibrils were immobilized on sensor chip CMS (GE Healthcare Life Sciences) via amine coupling to a level to ensure a maximum binding of analyte of approximately 100 RU. Various concentrations of antibodies or Fabs (ranging from 1 nM to 100 nM) were passed over the coupled ligand at 30 μL/min in running buffer (HBS+0.05% P-20, 1 mg/mL BSA) for 300 s association time and 1200 s dissociation time. Regeneration of the chip surface was accomplished by 2 short injections of 10 mM Glycine-HCl at pH 1.7. Data was blank-subtracted to both a sensor not containing ligand and 0 nM analyte concentration. Analysis was performed using a global 1:1 fit with BIAcore Insight Evaluation software (v2.0) with bulk refractive index set to zero RU.
Background: SPR reads the build-up and loss of mass on a sensor chip optically.

For experiment [2], the target named is T1, Aβ1-42 fibrils. In words: SPR (BIAcore T200); Aβ1-42 fibrils immobilized, Fab as analyte; global 1:1 fit. As for the experimental part:
as §1

For experiment [3], the target named is T1, Aβ1-42 fibrils. The experiment can be described thus: SPR (BIAcore T200); Aβ1-42 fibrils immobilized, antibody as analyte; global 1:1 fit. How it is done:
(§2) Fibrils were immobilized on sensor chip CMS (GE Healthcare Life Sciences) via amine coupling to a level to ensure a maximum binding of analyte of approximately 50 RU. […] Regeneration of the chip surface was accomplished by 2 short injections of 10 mM Glycine-HCl pH 1.7. Data was blank subtracted to both a sensor not containing ligand and 0 nM analyte concentration. Analysis was performed using a global 1:1 fit with BIAcore Insight Evaluation software (v2.0) with bulk refractive index set to zero RU.

Experiment [4] concerns the target T1, Aβ1-42 fibrils. In words: SPR (BIAcore T200); Aβ1-42 fibrils immobilized, antibody as analyte; global 1:1 fit; apparent KD (avidity). How it is done:
as §2

Experiment [5] addresses T1, Aβ1-42 fibrils. In words: competition ELISA; plate coated with fibril Aβ42; competitor hBP-biotin; IC50 of test divided by IC50 of hBP. As for the experimental part:
To generate fibrils, Aβ 1-42 polypeptides, previously treated with HFIP (hexafluoroisopropanol) and dried, were resuspended in DMSO to 5 mM, then further diluted to 100 uM with 10 mM HCl. Samples were incubated at 37° C. for 24 h, and then centrifuged to separate soluble and fibrillar species. The pellet was the resuspended in 1×D-PBS to the original volume and sonicated before use.
Plates were coated with 0.5 mg/ml of fibril Aβ 42 and blocked, e.g., with 1% BSA/PBS. […] 100 ul of GE Streptavidin HRP diluted 1/10,000 was then added and incubated for 30 minutes. Plates were then washed 6× with TTBS. Thermo Fisher o-phenylenediamine dihydrochloride (OPD) substrate was prepared fresh per manufacturers direction, and 100 ul per well was added. The reaction was incubated for 15 minutes and the reaction stopped with 50 ul 2N H₂SO₄.
On the technique in general: ELISA stands for enzyme-linked immunosorbent assay.

Experiment [6] deals with T2, Aβ1-28 (human).
T2 construct: Bought peptide (Bachem); also called Aß1-28 monomer; A131-28
The experiment can be described thus: SPR (Biacore T200); antibody captured by anti-human Fc, Aβ1-28 as analyte; global 1:1 fit. How it is done: (§3) Determination of binding affinity of anti-Aß candidates to Aß₁₋₂₈ (Bachem, Torrance, CA) was performed using a Biacore T200. Anti-human Fc antibody was immobilized to a CM3 sensor chip (GE Healthcare Life Sciences) via amine coupling and used to capture Aß antibodies.
(§4) Various concentrations of Aß₁₋₂₈ (analyte, ranging from concentrations of 100 nM down to 0.39 nM, serial diluted 2-fold each dilution step) were passed over the captured ligand at 50 μl/min in running buffer (HBS+0.05% P-20, 1 mg/mL BSA) for 240 s association time and 900 s dissociation time. Data were blank subtracted to both an irrelevant sensor not containing ligand, and buffer runs containing 0 nM analyte concentration. Analysis was performed using a global 1:1 fit with Biacore Evaluation software (v3.0).

For experiment [7], the target named is T3, Aβ pathology (plaques) in human AD brain tissue (human, UniProt P05067 672-713).
T3 construct: Native tissue deposits, heterogeneous; also called tissue Aβ pathology; Aβ plaques
In words: IHC on frozen human AD brain sections, brain AD 11-97; % stained area against antibody concentration (0.03-9 µg/ml). As for the experimental part: (§5) Tissue Sectioning and Fixation. The unfixed frozen brain tissue samples were embedded in Tissue-Tek OCT (Sakura Finetek) in cryomolds dipped in a mixture of 2-methylbutane and dry ice slurry (−60° C.) then stored at −80° C. until sectioning. Serial 10 μm thick cryosections were generated using a Leica 3050S cryostat. The sections were directly thaw-mounted on positively charged glass slides and were stored at −20° C. until use. Prior to immunohistochemistry IHC procedures, the slides were immersed in 10% neutral buffered formalin solution for 10 minutes at 4° C., rinsed in PBS, then incubated for an hour at 37° C. in a glucose oxidase solution (20 mM beta D(+) glucose, 2 mM sodium azide, and 2 units/mL glucose oxidase in 1×PBS). The slides were rinsed 3 times for 5 minutes in PBS before they were transferred onto staining racks for processing in an automated stainer.
(§6) Antibody biotinylation. The humanized IgG antibodies were biotinylated using a non-covalent method, by means of incubation with a biotin-conjugated goat anti-human monovalent fab fragment (Jackson ImmunoResearch) in a ratio of 1:4, for 1 hour at room temperature. Unbound excess Fab was absorbed by pre-incubation with human serum for an additional hour before use. The freshly prepared antibodies were then loaded into the stainer for immediate application to tissue sections.
(§7) Immunostaining. The staining was performed in an automated Leica Bond Rx Stainer (Leica Biosystems), using the Bond Research Kit (DS980, Leica Biosystems) and the avidin-biotin amplified immuno-peroxidase detection system. Each biotinylated anti-Aβ antibody, or a human IgG control, was applied to the sections, at specified concentrations, for one hour and the staining was visualized using the avidin-biotin amplification system (ABC Elite Standard, PK-6100; Vector Laboratories). Hematoxylin counter-staining of nuclei was subsequently applied to sections before dehydration in an ascending series of alcohols, clearing in xylene, cover-slipping, and air-drying.

The target in experiment [8] is T3, Aβ pathology (plaques) in human AD …. The experiment can be described thus: IHC on frozen human AD brain sections, brain AD 13-75; % stained area against antibody concentration (0.03-9 µg/ml). As for the experimental part:
as §5, §6, §7

Experiment [9] shares this target. The experiment can be described thus: IHC on frozen human AD brain sections, brain AD 14-11; % stained area against antibody concentration (0.03-9 µg/ml). As for the experimental part:
as §5, §6, §7

Experiment [10] has the same target. In words: IHC on frozen human AD brain sections, brain AD 15-19; % stained area against antibody concentration (0.03-9 µg/ml). As for the experimental part:
as §5, §6, §7

Experiment [11] deals with T2, Aβ1-28. The experiment can be described thus: SPR (Biacore T200); antibody captured by anti-human Fc, Aβ1-28 as analyte; global 1:1 fit; apparent KD. As for the experimental part:
as §3, §4

T2 sequence (peptide, as listed by the source): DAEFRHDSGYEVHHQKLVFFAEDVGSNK
T3 sequence (P05067 672-713): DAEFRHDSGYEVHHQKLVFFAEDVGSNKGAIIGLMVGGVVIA
T1 sequence (peptide, as listed by the source): as the sequence (P05067 672-713) above

B1: bapineuzumab Fab (Fab, V domains shown)
VH: EVQLLESGGGLVQPGGSLRLSCAASGFTFSNYGMSWVRQAPGKGLEWVASIRSGGGRTYYSDNVKGRFTISRDNSKNTLYLQMNSLRAEDTAVYYCVRYDHYSGSSDYWGQGTLVTVSS
VL: DVVMTQSPLSLPVTPGEPASISCKSSQSLLDSDGKTYLNWLLQKPGQSPQRLIYLVSKLDSGVPDRFSGSGSGTDFTLKISRVEAEDVGVYYCWQGTHFPRTFGQGTKVEIK
notes: also called hBP
B1: in the experiment with Aβ1-42 fibrils [1], the Kd was found to be 5.34 nM.

B2: h2731 Fab (Fab, V domains shown)
VH: EVQLLESGGGLVQPGGSLRLSCAASGFTFSNYGMSWVRQAPGKGLEWVASIRSGSGRTYYSDNVKGRFTISRDNSKNTLYLQMNSLRAEDTAVYYCVRYDHYSGSSDYWGQGTLVTVSS
VL: DVVMTQSPLSLPVTLGEPASISCKSSQSLLDYDGKTYLNWLLQKPGQSPQRLIYRVTNRDTGVPDRFSGSGSGTDFTLKISRVEAEDVGVYYCWQGTHFPRSFGQGTKVEIK
In general, koff refers to the first-order rate constant of dissociation. A low value points to a long-lived complex. The term kon denotes the second-order rate constant of association. Low values mean slow association, high ones fast association. With B2, the Kd with Aβ1-42 fibrils [1] was found to be 2.24 nM. In the experiment with Aβ1-42 fibrils [2], this molecule had an off-rate constant (koff) of 0.000289 s⁻¹ and a kon of 129000 M⁻¹ s⁻¹.

B3: h2831 (antibody, V domains shown)
VH: EVQLLESGGGLVQPGGSLRLSCAASGFTFSNFGMSWVRQAPGKGLEWVASVRSGSGRTYYSDNVKGRFTISRDNSKNTLYLQMNSLRAEDTAVYYCVRYDHYSGTSDYWGQGTLVTVSS
VL: DVVMTQSPLSLPVTLGEPASISCKSSQSLLDYDGKTYLNWLLQKPGQSPQRLIYRVTNRDTGVPDRFSGSGSGTDFTLKISRVEAEDVGVYYCWQGTHFPRSFGQGTKVEIK
notes: Humanized IgG mAb; also called PB-0575
Take B3: the koff amounted to 2.94e-05 s⁻¹ in the experiment with Aβ1-42 fibrils [3] and 0.000508 s⁻¹ in the experiment with Aβ1-28 [6]. Besides, the kon was determined as 265000 M⁻¹ s⁻¹ with Aβ1-42 fibrils [3] and 73100 M⁻¹ s⁻¹ in the experiment with Aβ1-28 [6]. The Kd with Aβ1-42 fibrils [4] came to 0.111 nM; in the experiment with Aβ1-28 [11], 6.95 nM. For the same molecule, the “IC50 ratio (test:hBP)” value with Aβ1-42 fibrils [5] was 0.77 ratio. The “Area Under Curve” value in [7] amounted to 49.2; in experiment [8] it was 139; in experiment [9] it was 149; in experiment [10] it was 49.7.

B4: h2726 Fab (Fab, V domains shown)
VH: EVQLLESGGGLVQPGGSLRLSCAASGFTFSNYGMSWVRQAPGKGLEWVASIRSGSGRTYYSDNVKGRFTISRDNSKNTLYLQMNSLRAEDTAVYYCVRYDHYSGSSDYWGQGTLVTVSS
VL: DVVMTQSPLSLPVTPGEPASISCKSSQSLLDYDGKTYLNWLLQKPGQSPQRLIYKVSNRDSGVPDRFSGSGSGTDFTLKISRVEAEDVGVYYCWQGTHFPRTFGQGTKVEIK
For B4, in the experiment with Aβ1-42 fibrils [1], the Kd turned out to be 2.01 nM. In the experiment with Aβ1-42 fibrils [2], this molecule returned a koff of 0.000259 s⁻¹ and a kon of 129000 M⁻¹ s⁻¹.

B5: h2726 (antibody, V domains shown)
VH: EVQLLESGGGLVQPGGSLRLSCAASGFTFSNYGMSWVRQAPGKGLEWVASIRSGSGRTYYSDNVKGRFTISRDNSKNTLYLQMNSLRAEDTAVYYCVRYDHYSGSSDYWGQGTLVTVSS
VL: DVVMTQSPLSLPVTPGEPASISCKSSQSLLDYDGKTYLNWLLQKPGQSPQRLIYKVSNRDSGVPDRFSGSGSGTDFTLKISRVEAEDVGVYYCWQGTHFPRTFGQGTKVEIK
notes: Humanized IgG mAb; Only the variable domains are tied to the construct; also called PB-0573
Take B5: the figures for the koff with Aβ1-42 fibrils [3] and in the experiment with Aβ1-28 [6] were 2.12e-05 s⁻¹ and 0.000555 s⁻¹, respectively. The kon was found to be 393000 M⁻¹ s⁻¹ with Aβ1-42 fibrils [3] and 92300 M⁻¹ s⁻¹ in the experiment with Aβ1-28 [6]. In addition, the Kd turned out to be 0.054 nM in the experiment with Aβ1-42 fibrils [4] and 6.01 nM in the experiment with Aβ1-28 [11]. Also, in the experiment with Aβ1-42 fibrils [5], the “IC50 ratio (test:hBP)” value was 0.68 ratio. Besides, the “Area Under Curve” value in [7] stood at 50.2; in [8], 149; in experiment [9], 149; in experiment [10] it was 52.1.

B6: h2831 Fab (Fab, V domains shown)
VH: EVQLLESGGGLVQPGGSLRLSCAASGFTFSNFGMSWVRQAPGKGLEWVASVRSGSGRTYYSDNVKGRFTISRDNSKNTLYLQMNSLRAEDTAVYYCVRYDHYSGTSDYWGQGTLVTVSS
VL: DVVMTQSPLSLPVTLGEPASISCKSSQSLLDYDGKTYLNWLLQKPGQSPQRLIYRVTNRDTGVPDRFSGSGSGTDFTLKISRVEAEDVGVYYCWQGTHFPRSFGQGTKVEIK
With B6, the Kd with Aβ1-42 fibrils [1] was determined as 2.31 nM. Moreover, in the experiment with Aβ1-42 fibrils [2], the off-rate constant (koff) came out at 0.000248 s⁻¹ and the kon was 108000 M⁻¹ s⁻¹.

B7: h2931 Fab (Fab, V domains shown)
VH: EVQLLESGGGLVQPGGSLRLSCAASGFTFSNFGMSWVRQAPGKGLEWVASVRSGSGRTYYSDNVKGRFTISRDNSKNTLYLQMNSLRAEDTAVYYCVRYDHYTGTSDYWGQGTLVTVSS
VL: DVVMTQSPLSLPVTLGEPASISCKSSQSLLDYDGKTYLNWLLQKPGQSPQRLIYRVTNRDTGVPDRFSGSGSGTDFTLKISRVEAEDVGVYYCWQGTHFPRSFGQGTKVEIK
For the molecule B7, the Kd with Aβ1-42 fibrils [1] came to 1.62 nM. In the experiment with Aβ1-42 fibrils [2], the koff is 0.000199 s⁻¹ and the kon came to 123000 M⁻¹ s⁻¹.
